Data on 2 substances can be found in patent US20230039401A1, “COMPOSITIONS AND METHODS FOR TREATING NRP2-ASSOCIATED DISEASES” (aTyr Pharma, Inc., priority 2018, published 2023).

Experiment [1] addresses T1, NRP2 (Homo sapiens, UniProt O60462).
T1 construct: Fc (C); purchased R&D Systems 2215-N2
Description: SPR protein-protein interaction, human NRP2 over immobilized protein. In kind it is binding. Particulars: NRP2 flowed as analyte (50 nM or 20 nM); running buffer with 5 mM CaCl2. The protocol:
(§1) Protein-Protein Interaction studies. […] SPR experiments were conducted on a Bio-Rad ProteOn XPR36 Protein Interaction Array instrument. Proteins were immobilized on different channels of ProteOn GLC sensor chips through amine coupling. Analyte proteins were flowed over the immobilized proteins. The sensor chip surface was regenerated between each analyte run to remove interacting proteins. Data was double referenced against an interspot (untreated chip surface) and a blank surface (activated and deactivated for amine coupling).
(§2) Studies were performed to confirm the binding specificity of Neuropilin 2 (NRP2) to Fc-HRS(2-60) using orthologous methods to those used in the large scale Retrogenix screening (Example 1). In a series of experiments, Fc-HRS(2-60) and related proteins were immobilized on SPR chips, and NRP2 and related proteins were flowed as analytes. Upon confirmation of the NRP2:Fc-HRS(2-60) interaction, the dependence on divalent cations was tested as NRP2 is known to have Ca^2+ binding sites. The effects of previously characterized NRP2 ligands on the NRP2: Fc-HRS(2-60) interaction was also tested to determine if these known ligands have competitive effects on the Fc-HRS(2-60) interaction.

For a further experiment, the target named is T2, mouse NRP2 (Mus musculus, UniProt O35375).
T2 construct: Fc (C); purchased R&D Systems 7988-N2
Put plainly: SPR protein-protein interaction, mouse NRP2 over immobilized protein. In kind it is binding. The note with it: 50 nM mouse NRP2 as analyte. The protocol:
as §1, §2

Another experiment has as its target T3, rat NRP2 (Rattus norvegicus, UniProt O35276).
T3 construct: Fc (C); His (C); purchased R&D Systems 567-N2
T3 sequence (O35276 23-925): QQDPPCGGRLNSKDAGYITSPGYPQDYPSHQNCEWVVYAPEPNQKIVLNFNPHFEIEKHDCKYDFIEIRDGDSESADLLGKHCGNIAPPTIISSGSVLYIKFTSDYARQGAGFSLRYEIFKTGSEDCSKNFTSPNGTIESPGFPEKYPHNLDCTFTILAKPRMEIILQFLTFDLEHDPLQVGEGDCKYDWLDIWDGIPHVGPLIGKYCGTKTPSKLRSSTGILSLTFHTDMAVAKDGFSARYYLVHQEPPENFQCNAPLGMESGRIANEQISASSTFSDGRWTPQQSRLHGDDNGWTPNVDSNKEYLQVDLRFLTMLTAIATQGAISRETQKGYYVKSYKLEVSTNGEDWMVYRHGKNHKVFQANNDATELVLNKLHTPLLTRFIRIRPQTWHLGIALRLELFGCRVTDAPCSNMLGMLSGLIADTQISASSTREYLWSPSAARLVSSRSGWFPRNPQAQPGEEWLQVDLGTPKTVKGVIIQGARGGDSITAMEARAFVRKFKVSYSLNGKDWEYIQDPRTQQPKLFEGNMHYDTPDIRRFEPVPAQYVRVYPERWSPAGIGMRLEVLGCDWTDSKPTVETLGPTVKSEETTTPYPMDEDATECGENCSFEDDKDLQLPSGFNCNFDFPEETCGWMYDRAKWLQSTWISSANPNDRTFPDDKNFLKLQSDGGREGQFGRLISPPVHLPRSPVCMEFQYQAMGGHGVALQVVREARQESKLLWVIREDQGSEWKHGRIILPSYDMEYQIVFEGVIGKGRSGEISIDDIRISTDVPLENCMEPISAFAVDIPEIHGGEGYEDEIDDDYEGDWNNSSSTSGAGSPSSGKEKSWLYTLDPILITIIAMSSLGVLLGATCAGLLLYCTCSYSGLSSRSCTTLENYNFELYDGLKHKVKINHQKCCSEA
Put plainly: SPR protein-protein interaction, rat NRP2 over immobilized protein. Type of experiment: binding. The note with it: 50 nM rat NRP2 as analyte. The protocol: as §1, §2

Experiment [2] addresses T4, cell-expressed NRP2 (NRP2a-GFP fusion protein on HEK293T cells) (Homo sapiens, UniProt O60462).
T4 construct: host or cells: HEK293T
Put plainly: Immunofluorescence binding of Fc-HRS (2-60) to HEK293T cells overexpressing NRP2v2-GFP. The note with it: HEK293T cells overexpressing NRP2v2-GFP, GFP Bright cells. The method, then: Reagents: • PE anti-human IgG Fc Antibody, clone HP6017, Biolegend cat 409304 • Mouse Anti-HRS monoclonal antibody (1-96) Clone 1C8, Abnova cat H00003035-M01 • Mouse IgG2a, Isotype control antibody (MOPC-173), Biolegend cat 400223 • Recombinant Human VEGF-C Protein, R&D Systems, cat 2179-VC-025/CF • Formaldehyde, 16%, methanol free, Ultra Pure, Polysciences, cat 18814-10 • Hoechst 33342, Trihydrochloride, Trihydrate, ThermoFisher Scientific, cat H1399 • Fc-HRS (2-60) was prepared as described in PCT application PCT/US2014/029699 • Gibco DMEM, High Glucose, ThermoFisher Scientific, cat 11965092 • PolyJet™ In Vitro DNA Transfection Reagent, SignaGen, cat SL100688 • Neuropilin 2 (NRP2) (NM_003872) Human ORF Clone, Origene, cat RG220706 • Collagen Coating Solution, Cell Applications Cat 125-100 • 1×PBS containing 1% BSA, 0.9 mM CaCl2 and 20 mM glucose • Binding buffer containing 1% normal mouse IgG (sigma cat 18765) and 2.5% (Human Fc Receptor Binding Inhibitor, ebioscience 14-9161-73).
Cell culture and transfection. […]
Immunofluorescence assays on cultured cells. Binding and quantitation of Fc-HRS (2-60) to cell-expressed NRP2 was achieved using immunofluorescence microscopy. […] The Hoechst stain was replaced with 1×PBS and subsequently read on an IN Cell Analyzer 2200. 20× images were acquired and analyzed using In Cell Analyzer 1000 Workstation software. […]

Experiment [3] addresses T5, NRP2:Fc-HRS(2-60) interaction (Homo sapiens, UniProt O60462).
T5 construct: Fc (C); purchased R&D Systems 2215-N2
Put plainly: SPR competition of known NRP2 ligands with the NRP2:Fc-HRS(2-60) interaction. Type of experiment: binding. The protocol: as §1, §2
(§3) A subset of the known ligands of NRP2 appears to compete binding of Fc-HRS(2-60) to NRP2.

Experiment [4] addresses T1, NRP2. Description: SPR binding of known ligands to NRP2. The note with it: known NRP2 ligands. The protocol: as §1, §3
For orientation: In SPR one partner is held on a chip, and binding of the other changes the refractive index at the surface.

“Also recorded” adds a separate entry of the source.

T2 sequence (O35375 21-931): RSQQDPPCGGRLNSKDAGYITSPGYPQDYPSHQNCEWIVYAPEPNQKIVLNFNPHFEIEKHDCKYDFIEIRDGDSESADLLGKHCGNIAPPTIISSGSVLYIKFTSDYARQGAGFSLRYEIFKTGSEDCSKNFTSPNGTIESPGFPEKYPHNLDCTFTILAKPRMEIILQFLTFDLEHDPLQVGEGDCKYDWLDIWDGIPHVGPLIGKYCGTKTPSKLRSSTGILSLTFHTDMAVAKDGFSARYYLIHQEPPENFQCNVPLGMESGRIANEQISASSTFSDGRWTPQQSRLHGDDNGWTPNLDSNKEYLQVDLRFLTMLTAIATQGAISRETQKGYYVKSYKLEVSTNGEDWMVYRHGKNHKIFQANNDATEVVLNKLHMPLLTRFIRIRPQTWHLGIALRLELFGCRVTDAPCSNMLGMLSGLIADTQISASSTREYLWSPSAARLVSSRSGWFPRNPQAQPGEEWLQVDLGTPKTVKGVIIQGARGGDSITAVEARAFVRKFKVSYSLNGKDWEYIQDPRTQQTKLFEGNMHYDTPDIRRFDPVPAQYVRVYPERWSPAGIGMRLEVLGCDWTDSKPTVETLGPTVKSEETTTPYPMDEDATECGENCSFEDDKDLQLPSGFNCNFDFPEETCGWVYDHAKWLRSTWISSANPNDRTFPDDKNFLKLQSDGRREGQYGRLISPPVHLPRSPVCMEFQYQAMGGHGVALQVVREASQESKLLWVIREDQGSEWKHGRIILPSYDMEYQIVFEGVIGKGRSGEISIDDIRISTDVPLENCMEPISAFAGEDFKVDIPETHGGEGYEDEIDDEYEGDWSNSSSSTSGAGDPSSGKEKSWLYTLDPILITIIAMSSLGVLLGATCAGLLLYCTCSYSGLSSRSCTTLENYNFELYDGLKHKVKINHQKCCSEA

“Fc-HRS(2-11): truncated form of Fc-HRS(2-60) with a 49 amino acid deletion at the C-terminus, deleting the majority of the WHEP domain”: in the experiment with NRP2 [1], the “binding of human NRP2 to immobilized protein (SPR)” value is recorded as “not a truncated form of Fc-HRS(2-11); also recorded: none of these NRP2 forms bind”. In addition, in the experiment with mouse NRP2, the “binding of mouse NRP2 to immobilized protein (SPR)” value is listed as “not a truncated form of Fc-HRS(2-11); also recorded: none of these NRP2 forms bind”. In addition, in the experiment with rat NRP2, the “binding of rat NRP2 to immobilized protein (SPR)” value is on record as “not a truncated form of Fc-HRS(2-11); also recorded: none of these NRP2 forms bind”. For the same substance, in experiment [2], the “binding to cell-expressed NRP2a (staining intensity of anti-Fc-PE complex)” value is “negligible specific binding”.

For “VEGF-A165: commercial protein (Peprotech #100-20) [reference compound]”, the “effect of ligand on binding of NRP2 to Fc-HRS(2-60) (SPR)” value in experiment [3] (NRP2 in the presence of the ligand over immobilized Fc-HRS(2-60)) was “reduced or ablated”. The “Competes with Fc-HRS(2-60) for NRP2 binding” value in experiment [3] (SPR, NRP2 binding to immobilized Fc-HRS(2-60) in presence of ligand) was “Yes”. In addition, the “Binding to NRP2 observed by SPR” value with NRP2 [4] was “Yes”.
